Test [1] deals with ABA-inducible wheat Em promoter. The test can be described thus: Em-GUS reporter transactivation in transiently transformed maize mesophyll protoplasts. The test is classed as cell-based. Conditions: for Transactivation of Em-GUS expression by overexpressed effector: maize mesophyll protoplasts, effector overexpressed alone. The procedure: Plant Materials. Maize mesophyll protoplasts were isolated from 20-hr illuminated leaves of 10 day old maize seedlings that had been kept in the dark at 25° C. The middle part of the second leaves (about 6 cm in length) was cut into 0.5 mm strips with a razor blade and digested in an enzyme solution containing 1% (w/v) cellulose RS, 0.1% (w/v) macerozyme R10 (Yakult Honsha, Nishinomiya, Japan), 0.6 M mannitol, 10 mM MES (pH 5.7), 1 mM CaCl2, 1 mM MgCl2, 10 mM β-mercaptoethanol, and 0.1% BSA (w/v) for 3 hr at room temperature. Protoplasts were released by shaking on a rotary shaker at 80 rpm for 10 min and were filtered through a 70 μm nylon filter. Protoplasts were collected by centrifugation at 100 g for 2 min, washed in cold 0.6 M mannitol solution, centrifuged, and resuspended at 2×10^6/mL in cold 0.6 M mannitol. Electroporation conditions were 400 V/cm, 200 μF, 10 msec, and two pulses with a Biorad GenePulser apparatus. Each sample contained 5×10^4 protoplasts and about 50 μg DNA in 0.3 mL of 0.6 M mannitol and 20 mM KCl.
(§1) Plasmid pBM207 contains the wheat (Triticum aestivum) Early Methionine-labeled (Em) promoter driving the expression of GUS, encoded by uida from Escherichia coli. Plasmid pDH359 contains ABI5 cDNA driven by Ubiquitin promoter. Plasmid pCR349.13S contains the 35S promoter driving the VP1 sense cDNA. Plasmid pDirect2.6 contains the Ubi promoter in a reverse orientation and was used as control construct to balance the total amount of input plasmid DNA between various treatments. Plasmid pAHC 18 contains the Ubi promoter driving firefly (Photinus pyralis) LUC cDNA and was included in transformations to provide an internal reference for non-ABA-inducible transient transcription in reporter enzyme assays. ABF1-ABF4, AREB3, and DPBF4 were amplified by PCR using gene-specific primers from an Arabidopsis cDNA library (Minet et al. Plant J. 2:417 (1992)) and were cloned into plasmid pDH349 (Gampala et al. J. Biol. Chem. 277: 1689 (2002)) containing the maize Ubiquitin promoter and nopaline synthase 3′ termination signals.
The values in FIG. 2 are the average (±S.E.M.) of four replicate transformations.
To test the involvement of ABI3-Like B3 domain transcription factors in ABA signaling, ABA-inducible reporter gene transactivation by the B3 domain-containing RAV2 was assayed in maize mesophyll protoplasts transiently co-transformed with a full length cDNA under transcriptional control of the Ubiquitin promoter. Activation of Em-GUS reporter gene expression by RAV2, relative to non-ABA inducible Ubi-LUC reference reporter as internal control, and functional interactions of RAV2 with VP1, ABI5, and the ABI5-Like ABF3 were compared in protoplasts treated with or without 100 uM ABA (see FIG. 3).

For test [2] the test system is unchanged. As to the kind of experiment: Em-GUS reporter transactivation in transiently transformed rice protoplasts. Format: cell-based, Oryza sativa. Conditions: for Transactivation of Em-GUS expression by overexpressed effector: effector overexpressed alone, average of four replicate transformations. On the procedure:
Embryonic rice (Oryza sativa) callus cultures (Radon 6 from the International Rice Research Institute, Los Bafios, Phillipines) were obtained. Embryonic rice callus cultures were grown as suspensions in liquid culture as well as on phytagel plates containing MS medium supplemented with 2.0 mg/L 2,4-D. Cultures were propagated and digested for making protoplasts as previously described except that 10 mM HEPES (Sigma, St. Louis, Mo., USA), pH 5.6, was substituted for phosphate in the Krens'F medium, and 2% (weight/volume; w/v) cellulase YC, 0.35% (w/v) macerozyme, and 0.1% (w/v) pectolyase Y23 were used for overnight digestion (Karlan Research Products, Santa Rosa, CA, USA). Protoplasts were transformed with various mixtures of DNA reporter and effector constructs using polyethylene glycol precipitation. Transformed protoplasts were incubated with or without 100 μM ABA for 16 h in the dark in Krens solution before quantifying β-glucuronidase (GUS) and luciferase (LUC) reporter enzyme activities as previously described. ABA was dissolved and stored in absolute ethanol at −20° C. as a 0.1 M stock solution. Prior to use, required dilutions of ABA were made in Krens solution, and control samples received the same volume of solvent as in ABA treatments.
as §1
Simultaneously, it has been shown that ABF2, ABF3 and ABF4 overexpression in transgenic Arabidopsis results in ABA hypersensitivity and other ABA-associated phenotypes such as altered ABA-inducible gene expression and glucose signaling, reduced transpiration, and enhanced drought tolerance. The functional roles of the ABI5-like family members ABF1-ABF4 in regulation of ABA-inducible gene expression in rice protoplasts were tested and the results are shown in FIG. 1. […] Protoplasts were transformed with Em-GUS and a “dummy” effector construct (pD2.6 containing only the Ubiquitin promoter used to drive effector expression) or co-transformed with a Ubi-ABF construct and treated with or without 100 μM ABA. The values shown in FIG. 1A are the average (±S.E.M.) of four replicate transformations.
Rice protoplasts were transformed with either Em-GUS alone or in pairwise combinations of Ubi-ABF3, Ubi-ABI5, or 35S-VP1. The values in FIG. 1B are the average (±S.E.M.) of four replicate transformations. ABF3 is a related member of the ABI5-family of bZIP transcription factors.

“Also recorded” adds a separate entry of the source.

B1: ABF2: Arabidopsis ABI5-like ABA-Response Element-Binding Factor, bZIP, At1g45249 (protein, listed as Arabidopsis thaliana)
chain: MDGSMNLGNEPPGDGGGGGGLTRQGSIYSLTFDEFQSSVGKDFGSMNMDELLKNIWSAEETQAMASGVVPVLGGGQEGLQLQRQGSLTLPRTLSQKTVDQVWKDLSKVGSSGVGGSNLSQVAQAQSQSQSQRQQTLGEVTLEEFLVRAGVVREEAQVAARAQIAENNKGGYFGNDANTGFSVEFQQPSPRVVAAGVMGNLGAETANSLQVQGSSLPLNVNGARTTYQQSQQQQPIMPKQPGFGYGTQMGQLNSPGIRGGGLVGLGDQSLTNNVGFVQGASAAIPGALGVGAVSPVTPLSSEGIGKSNGDSSSLSPSPYMFNGGVRGRKSGTVEKVVERRQRRMIKNRESAARSRARKQAYTVELEAEVAKLKEENDELQRKQARIMEMQKNQETEMRNLLQGGPKKKLRRTESGPW
For the molecule B1, in test [1], the “Synergy with co-transformed VP1 on Em-GUS expression” value (“Synergy with co-transformed VP1” below) is listed as “not”; the “Synergy with exogenous ABA on Em-GUS expression” value (“Synergy with exogenous ABA” for short) was “lower levels of ABA synergy compared to ABF3 and ABF4”. Also, the “Transactivation of Em-GUS expression by overexpressed effector” value (shortened to “Transactivation of Em-GUS expression”) in test [2] is recorded as “no effect on Em-GUS expression”.

B2: ABF3: Arabidopsis ABI5-like ABA-Response Element-Binding Factor, bZIP, At4g34000 (protein)
chain: MGSRLNFKSFVDGVSEQQPTVGTSLPLTRQNSVFSLTFDEFQNSWGGGIGKDFGSMNMDELLKNIWTAEESHSMMGNNTSYTNISNGNSGNTVINGGGNNIGGLAVGVGGESGGFFTGGSLQRQGSLTLPRTISQKRVDDVWKELMKEDDIGNGVVNGGTSGIPQRQQTLGEMTLEEFLVRAGVVREEPQPVESVTNFNGGFYGFGSNGGLGTASNGFVANQPQDLSGNGVAVRQDLLTAQTQPLQMQQPQMVQQPQMVQQPQQLIQTQERPFPKQTTIAFSNTVDVVNRSQPATQCQEVKPSILGIHNHPMNNNLLQAVDFKTGVTVAAVSPGSQMSPDLTPKSALDASLSPVPYMFGRVRKTGAVLEKVIERRQKRMIKNRESAARSRARKQAYTMELEAEIAQLKELNEELQKKQVEIMEKQKNQLLEPLRQPWGMGCKRQCLRRTLTGPW
With B2, in test [1], the “Synergy with co-transformed VP1” value is reported as “can synergize with co-transformed VP1”, the “Synergy with exogenous ABA” value is listed as “synergize with exogenous ABA” and the “Transactivation of Em-GUS expression” value is recorded as “sufficient for transactivation of the Em promoter; also recorded: sufficient for specific Em-GUS transactivation; also recorded: sufficient to transactivate Em-GUS expression”. Further, the “Synergy with exogenous ABA” value in test [2] (100 μM ABA, 16 h) was “strong; also recorded: acted in synergy with ABA; also recorded: interacts synergistically”. Further, in test [2] (co-expressed with VP1), the “Synergistic activity with VP1 relative to that of ABI5 with VP1” value is “about twice the synergistic activity seen between ABI5 and VP1”. The “Transactivation of Em-GUS expression” value in test [2] is listed as “sufficient for transactivation of the Em promoter; also recorded: transactivated the Em promoter; also recorded: sufficient to transactivate ABA-inducible Em-GUS expression”. In addition, the “Synergy with co-expressed VP1 on Em-GUS expression” value in test [2] (pairwise co-transformation with 35S-VP1) was “synergized with each other and with ABA; also recorded: interacts synergistically”. The “Synergy with co-expressed ABI5 on Em-GUS expression” value in test [2] (pairwise co-transformation with Ubi-ABI5) is reported as “did not result in synergy”.

B3: ABF4: Arabidopsis ABI5-like ABA-Response Element-Binding Factor, bZIP, At3g19290 (protein, listed as Arabidopsis thaliana)
chain: MGTHINFNNLGGGGHPGGEGSSNQMKPTGSVMPLARQSSVYSLTFDELQNTLGGPGKDFGSMNMDELLKSIWTAEEAQAMAMTSAPAATAVAQPGAGIPPPGGNLQRQGSLTLPRTISQKTVDEVWKCLITKDGNMEGSSGGGGESNVPPGRQQTLGEMTLEEFLFRAGVVREDNCVQQMGQVNGNNNNGFYGNSTAAGGLGFGFGQPNQNSITFNGTNDSMILNQPPGLGLKMGGTMQQQQQQQQLLQQQQQQMQQLNQPHPQQRLPQTIFPKQANVAFSAPVNITNKGFAGAANNSINNNNGLASYGGTGVTVAATSPGTSSAENNSLSPVPYVLNRGRRSNTGLEKVIERRQRRMIKNRESAARSRARKQAYTLELEAEIEKLKKTNQELQKKQAEMVEMQKNELKETSKRPWGSKRQCLRRTLTGPW
Turning to B3, in test [1], the “Synergy with co-transformed VP1” value was “no functional interactions with VP1 and not”; the “Synergy with exogenous ABA” value is “synergize with exogenous ABA”; the “Transactivation of Em-GUS expression” value was “sufficient for transactivation of the Em promoter; also recorded: sufficient to transactivate Em-GUS expression”. For the same molecule, the “Transactivation of Em-GUS expression” value in test [2] was “sufficient for transactivation of the Em promoter; also recorded: sufficient to transactivate ABA-inducible Em-GUS expression”.

Values taken from patent US20090083877A1, “Transcription Factors, DNA and Methods for Introduction of Value-Added Seed Traits and Stress Tolerance” (priority 2002, published 2009).
